# Experimental data published in US20160251409A1.
# Target: GPIIb/IIIa receptor on platelets (human) (UniProt P08514)
# Experiment: cell-based or functional assay
substance,measurement,value
Abciximab (ReoPro®) (Fab),"Platelet aggregation, 30 nM, SFLLRN 10 µM activated platelets",60.7 % of control
